Source: US20250304655A1

Target: human hemoglobin (HbA) (human) (UniProt P69905)
Assay: cell-based or functional assay

Chain of human hemoglobin (HbA) (human) (P69905 2-142 limits assumed, chain 1 of 2): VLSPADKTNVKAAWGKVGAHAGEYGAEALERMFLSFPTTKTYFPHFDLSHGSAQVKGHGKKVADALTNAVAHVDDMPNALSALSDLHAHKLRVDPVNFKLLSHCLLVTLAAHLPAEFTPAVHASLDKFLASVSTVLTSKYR
Chain of human hemoglobin (HbA) (human) (P68871 2-147 limits assumed, chain 2 of 2, further chain): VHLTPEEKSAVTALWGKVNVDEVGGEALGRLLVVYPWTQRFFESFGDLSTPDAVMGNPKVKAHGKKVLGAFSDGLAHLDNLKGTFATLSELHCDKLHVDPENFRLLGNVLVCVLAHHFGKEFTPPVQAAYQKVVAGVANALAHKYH

median relative relaxation: 83%
Substance: recHp1-1
